Laboratory results published in publication PMC12232663, “Molecular contacts in self-assembling clusters of membrane proteins” (Proceedings of the National Academy of Sciences of the …, 2025).

Target: the molecule itself
Assay: cryo-EM structure; single-particle reconstruction of purified channel reconstituted into POPC vesicles (protein:lipid 1:20, 10 mM Tris pH 8.0, 150 mM KCl); C4-symmetric map; monomers to tetramer

B1: Human HCN1 with a C-terminal truncation (residues 636 to 865) (natural protein, UniProt O60741 1-890, looked up)
chain: MEGGGKPNSSSNSRDDGNSVFPAKASATGAGPAAAEKRLGTPPGGGGAGAKEHGNSVCFKVDGGGGGGGGGGGGEEPAGGFEDAEGPRRQYGFMQRQFTSMLQPGVNKFSLRMFGSQKAVEKEQERVKTAGFWIIHPYSDFRFYWDLIMLIMMVGNLVIIPVGITFFTEQTTTPWIIFNVASDTVFLLDLIMNFRTGTVNEDSSEIILDPKVIKMNYLKSWFVVDFISSIPVDYIFLIVEKGMDSEVYKTARALRIVRFTKILSLLRLLRLSRLIRYIHQWEEIFHMTYDLASAVVRIFNLIGMMLLLCHWDGCLQFLVPLLQDFPPDCWVSLNEMVNDSWGKQYSYALFKAMSHMLCIGYGAQAPVSMSDLWITMLSMIVGATCYAMFVGHATALIQSLDSSRRQYQEKYKQVEQYMSFHKLPADMRQKIHDYYEHRYQGKIFDEENILNELNDPLREEIVNFNCRKLVATMPLFANADPNFVTAMLSKLRFEVFQPGDYIIREGAVGKKMYFIQHGVAGVITKSSKEMKLTDGSYFGEICLLTKGRRTASVRADTYCRLYSLSVDNFNEVLEEYPMMRRAFETVAIDRLDRIGKKNSILLQKFQKDLNTGVFNNQENEILKQIVKHDREMVQAALPRESSSVLNTDPDAEKPRFASNL
notes: source: HEK293S GnTI- cells (BacMam), purified (GFP-nanobody resin, SEC in LMNG:CHS), reconstituted into POPC vesicles
stoichiometry N: 4
